The results in this text go back to patent publication US20260015406A1 (University of Pennsylvania, published 2026).

Assay [1] addresses switchable CAR (sCAR) with anti-PNE single chain variable fragment. Put plainly: flow cytometry, PNE-FITC titrated on sCAR T cells. A general note: In flow cytometry, cells or beads pass a laser one at a time.
Assay [2] deals with T1, human full length aminopeptidase N (APN, aka CD13) (human, UniProt P15144 2-967).
T1 construct: whole, on cells
Kind of assay: flow cytometry on patient-derived AML cells (AML2844).

Assay [3] deals with T1, human full length aminopeptidase N …. Kind of assay: flow cytometry on THP-1 cells (endogenous CD13).
The target of assay [4] is T2, human full length CDH17, also called cadherin 17 or liver-intestine cadherin (human, UniProt Q12864 23-832).
T2 sequence (looked up): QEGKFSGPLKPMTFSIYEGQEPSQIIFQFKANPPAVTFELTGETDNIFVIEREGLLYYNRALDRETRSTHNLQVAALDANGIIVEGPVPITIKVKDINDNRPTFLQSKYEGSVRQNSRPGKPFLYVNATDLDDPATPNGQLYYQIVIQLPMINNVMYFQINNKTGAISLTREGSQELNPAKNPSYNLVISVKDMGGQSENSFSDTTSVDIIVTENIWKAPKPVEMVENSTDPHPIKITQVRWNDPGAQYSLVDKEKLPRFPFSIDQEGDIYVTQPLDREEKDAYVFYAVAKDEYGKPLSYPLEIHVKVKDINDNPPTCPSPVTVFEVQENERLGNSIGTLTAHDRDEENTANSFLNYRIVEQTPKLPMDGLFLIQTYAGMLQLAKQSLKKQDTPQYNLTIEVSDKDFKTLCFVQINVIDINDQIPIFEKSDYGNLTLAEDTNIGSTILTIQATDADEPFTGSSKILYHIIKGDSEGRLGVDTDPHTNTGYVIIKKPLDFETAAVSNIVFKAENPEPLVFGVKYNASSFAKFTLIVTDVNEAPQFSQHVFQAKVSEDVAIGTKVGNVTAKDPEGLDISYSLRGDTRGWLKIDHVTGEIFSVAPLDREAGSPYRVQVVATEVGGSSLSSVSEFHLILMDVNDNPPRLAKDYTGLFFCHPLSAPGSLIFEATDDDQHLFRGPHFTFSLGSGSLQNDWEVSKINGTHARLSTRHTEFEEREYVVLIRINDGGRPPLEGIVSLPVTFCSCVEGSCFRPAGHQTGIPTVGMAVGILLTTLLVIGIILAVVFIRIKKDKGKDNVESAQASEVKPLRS
Put plainly: cell-based or functional assay.

A further assay concerns the target T3, mouse CDH17 (mouse, UniProt Q9R100 26-827).
T3 construct: whole, on cells
T3 sequence (looked up): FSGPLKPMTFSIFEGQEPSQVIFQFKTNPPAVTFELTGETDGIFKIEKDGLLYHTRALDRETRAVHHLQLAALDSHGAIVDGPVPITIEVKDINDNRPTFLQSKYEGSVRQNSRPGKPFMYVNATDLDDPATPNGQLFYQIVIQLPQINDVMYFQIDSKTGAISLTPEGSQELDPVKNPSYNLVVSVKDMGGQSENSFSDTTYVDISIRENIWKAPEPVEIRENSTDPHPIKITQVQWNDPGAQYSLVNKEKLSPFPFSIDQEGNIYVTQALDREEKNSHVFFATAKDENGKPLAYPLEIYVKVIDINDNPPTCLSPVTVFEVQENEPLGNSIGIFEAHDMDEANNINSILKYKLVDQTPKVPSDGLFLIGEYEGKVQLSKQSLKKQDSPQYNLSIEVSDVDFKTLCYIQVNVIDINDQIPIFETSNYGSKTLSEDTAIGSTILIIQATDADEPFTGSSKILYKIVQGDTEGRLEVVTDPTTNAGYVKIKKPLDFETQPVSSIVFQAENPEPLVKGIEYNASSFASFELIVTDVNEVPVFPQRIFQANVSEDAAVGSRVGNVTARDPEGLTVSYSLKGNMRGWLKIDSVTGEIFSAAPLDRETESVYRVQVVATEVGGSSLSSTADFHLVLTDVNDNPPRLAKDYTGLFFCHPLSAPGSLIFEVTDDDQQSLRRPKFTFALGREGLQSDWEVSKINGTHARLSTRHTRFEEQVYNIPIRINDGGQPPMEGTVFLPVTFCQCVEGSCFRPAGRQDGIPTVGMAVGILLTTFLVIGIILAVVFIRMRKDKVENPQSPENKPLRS
Kind of assay: flow cytometry, VHH1-expressing phage on HEK293T cells transiently transfected with CDH17 cDNA. The procedure: (§1) Next, to identify the protein antigen of the isolated VHH1 nanobody, ˜3000 human cell membrane protein cDNAs were prepared and transfected into HEK293T cells individually, followed by flow cytometry analysis with the VHH1-expressing phage and FITC-labeled secondary antibody against phage M13 protein (FIG. 12A). […] Human or mouse CDH17 cDNA was transiently transfected into HEK293T cells, followed by flow cytometry analysis with the VHH1-expressing phage and FITC-labeled secondary antibody against phage M13 protein.

Assay [5] concerns the target T2, human full length CDH17, also called …. Put plainly: flow cytometry, VHH1-expressing phage on HEK293T cells transfected with membrane protein cDNAs. The procedure: as §1

T1 sequence (P15144 2-967): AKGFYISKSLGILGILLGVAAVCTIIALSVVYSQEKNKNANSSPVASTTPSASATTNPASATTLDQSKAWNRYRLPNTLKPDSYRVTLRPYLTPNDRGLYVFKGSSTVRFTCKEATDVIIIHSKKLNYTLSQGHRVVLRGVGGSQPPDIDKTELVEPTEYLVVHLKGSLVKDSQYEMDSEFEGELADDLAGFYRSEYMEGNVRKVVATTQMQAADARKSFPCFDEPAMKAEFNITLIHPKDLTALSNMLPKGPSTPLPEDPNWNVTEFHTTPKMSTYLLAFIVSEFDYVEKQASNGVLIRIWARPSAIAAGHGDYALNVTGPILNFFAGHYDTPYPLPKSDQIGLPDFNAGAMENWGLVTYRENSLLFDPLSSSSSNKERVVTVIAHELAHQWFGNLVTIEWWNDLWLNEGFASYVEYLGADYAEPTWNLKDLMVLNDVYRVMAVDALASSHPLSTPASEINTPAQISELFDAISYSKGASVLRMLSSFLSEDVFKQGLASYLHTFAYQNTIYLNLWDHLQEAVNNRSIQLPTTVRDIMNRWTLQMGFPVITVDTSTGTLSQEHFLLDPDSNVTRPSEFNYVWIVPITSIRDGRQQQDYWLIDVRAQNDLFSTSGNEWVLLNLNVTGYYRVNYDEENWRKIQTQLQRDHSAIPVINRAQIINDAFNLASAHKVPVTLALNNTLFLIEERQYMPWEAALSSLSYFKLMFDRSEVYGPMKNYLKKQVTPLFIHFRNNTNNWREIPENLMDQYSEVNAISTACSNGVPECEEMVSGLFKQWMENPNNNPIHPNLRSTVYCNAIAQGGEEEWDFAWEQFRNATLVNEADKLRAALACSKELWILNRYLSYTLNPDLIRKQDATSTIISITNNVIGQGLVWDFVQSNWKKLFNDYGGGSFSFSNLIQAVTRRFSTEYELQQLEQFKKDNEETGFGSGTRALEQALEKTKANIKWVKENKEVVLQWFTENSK

FITC-labeled PNE-peptide: the EC50 (in general, the concentration giving half of the maximal effect) in assay [1] came out at 1 nM.

B1: Nb163 (VHH)
VHH: QVQLQESGGGLVQPGGSLRLSCVPSGFTFDGYLIGWFRQAPGSERKAVSCISVNGDRTNYADSVKGRFTISRDNAKNTVYLQMNSLRPNDTAIYYCATRRGNRLYNNNCPYFEYGTWGQGTQVTVSS
notes: also called VHH163; VH163
For B1, the binding result in assay [2] is “binds”.

B2: Nb157-C-PNE (VHH)
VHH: QVQLQESGGGLVQPGGSLSLSCTASGFTFSSYSMAWVRQAPGKGPEWVSGIYPSDGKTRYADFVKGRFSISRDNAKNMLYLQMNNLEPEDTALYYCARGITGLGPRGQGTQVTVSS
notes: also called VHH157-C-PNE; Nb157 with C-terminal PNE; not shown: PNE, a fourteen amino acid peptide
Take B2: in assay [3], the Kd (in general, a measure of binding affinity in units of concentration) was roughly 35 nM.

B3: Nb157 (VHH)
VHH: QVQLQESGGGLVQPGGSLSLSCTASGFTFSSYSMAWVRQAPGKGPEWVSGIYPSDGKTRYADFVKGRFSISRDNAKNMLYLQMNNLEPEDTALYYCARGITGLGPRGQGTQVTVSS
notes: Llama nanobody from the THP-1-immunised library; also called VHH157; VH157
For B3, the Kd in assay [3] was roughly 35 nM.

B4: Nb157-N-PNE (VHH)
VHH: QVQLQESGGGLVQPGGSLSLSCTASGFTFSSYSMAWVRQAPGKGPEWVSGIYPSDGKTRYADFVKGRFSISRDNAKNMLYLQMNNLEPEDTALYYCARGITGLGPRGQGTQVTVSS
notes: also called VHH157-N-PNE; Nb157 with N-terminal PNE; not shown: PNE, a fourteen amino acid peptide
On to B4, for which the Kd in assay [3] is roughly 90 nM.

B5: VLV-DM1 (VHH, not shown: small tags and cut ends)
VHH 1: QVQLQESGGGLVQPGGSTRLSCVSSRTFSYYDMGWFRQAPGKEREFVALLSWNGENAEYSDSVMGRFTVSRGNTQNSVNLQMNNLKPEDTGIYYCAVTHGGARSVRSWGQGTQVTVSS
VHH 2: QVQLQESGGGLVQPGGSTRLSCVSSRTFSYYDMGWFRQAPGKEREFVALLSWNGENAEYSDSVMGRFTVSRGNTQNSVNLQMNNLKPEDTGIYYCAVTHGGARSVRSWGQGTQVTVSS
modifications: Mertansine (DM1) is conjugated to the VLV protein; the residues, number of drugs and chemical linker are not stated. In reality one polypeptide: the two VHH1 units are joined by a peptide linker whose letters are not given.
As to B5, the “IC50, in vitro killing of BON cells (MTT assay)” value in assay [4] came out at 1.2 nM.

B6: VHH1 nanobody (VHH)
VHH: QVQLQESGGGLVQPGGSTRLSCVSSRTFSYYDMGWFRQAPGKEREFVALLSWNGENAEYSDSVMGRFTVSRGNTQNSVNLQMNNLKPEDTGIYYCAVTHGGARSVRSWGQGTQVTVSS
notes: From a naive llama phage library panned on BON cells
As for B6, the binding result (in the assay with mouse CDH17; in assay [5]) was “binds” throughout.
